Target: myostatin pro peptide (wild type) (human) (UniProt O14793)
Assay: cell-based or functional assay

Chain of myostatin pro peptide (wild type) (human) (O14793 24-266): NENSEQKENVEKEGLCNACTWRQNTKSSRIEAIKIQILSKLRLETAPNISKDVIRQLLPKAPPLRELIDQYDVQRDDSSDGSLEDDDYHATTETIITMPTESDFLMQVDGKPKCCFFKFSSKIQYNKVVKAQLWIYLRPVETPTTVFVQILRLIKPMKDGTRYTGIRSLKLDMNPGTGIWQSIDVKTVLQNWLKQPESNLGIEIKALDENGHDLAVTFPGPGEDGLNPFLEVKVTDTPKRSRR

mammalian Tolloid-like-1 (mTLL-1) (from UniProt O43897 148-1013) (enzyme)
fraction of the proteolytically-cleaved myostatin complex active in the reporter assay: > 50%
